In doi:10.1101/2023.05.02.539095 (bioRxiv, 2023):

Biological target: the molecule itself
Experiment: SEC-MALS

B1: MSMEG_0317-His (wild type, made in E. coli) (natural protein)
chain: MNRAVALRIAACGLLGLGAALLIAALLLTTYTKGKIAKIPLDIDTSLVSDGTATAFDPDSLVAERFKIDRDVPVALQQQMSVEAPSNADVVTFQVGTTLRRTDRQQDAGLLLALVDTVTMNRNTAEAVSSENNPGGAVQKPRAIEDEKPPTNIALPHEGLTYRFPFDTEKKTYPFFDPIAQKAFDANYDGEEDVNGLTTYRFVQNVGYDADGKLADPIKYSSLYEDDADASVTARAEVWGVPGEPDESITMDRFYAASRTFWVDPVSGTIVKSEEHGYQYYAREALKPEVTYVDFKVTTNEESVESQVAAASDERDRIALWTRILPITFTALGLVSLVGGAVLGSFALRTESTLIDPGLDTADHGFFDTQGIQVPGAEAKTEKLPAQRPTDLPPDRPI
stoichiometry N: 2
